According to paper PMC3285539 (Nature, 2012):

How the values were obtained:
Rpn1 = target: T1, Rpn1 (S. cerevisiae, UniProt P38764 1-993); assay: cryo-EM structure
T1 sequence: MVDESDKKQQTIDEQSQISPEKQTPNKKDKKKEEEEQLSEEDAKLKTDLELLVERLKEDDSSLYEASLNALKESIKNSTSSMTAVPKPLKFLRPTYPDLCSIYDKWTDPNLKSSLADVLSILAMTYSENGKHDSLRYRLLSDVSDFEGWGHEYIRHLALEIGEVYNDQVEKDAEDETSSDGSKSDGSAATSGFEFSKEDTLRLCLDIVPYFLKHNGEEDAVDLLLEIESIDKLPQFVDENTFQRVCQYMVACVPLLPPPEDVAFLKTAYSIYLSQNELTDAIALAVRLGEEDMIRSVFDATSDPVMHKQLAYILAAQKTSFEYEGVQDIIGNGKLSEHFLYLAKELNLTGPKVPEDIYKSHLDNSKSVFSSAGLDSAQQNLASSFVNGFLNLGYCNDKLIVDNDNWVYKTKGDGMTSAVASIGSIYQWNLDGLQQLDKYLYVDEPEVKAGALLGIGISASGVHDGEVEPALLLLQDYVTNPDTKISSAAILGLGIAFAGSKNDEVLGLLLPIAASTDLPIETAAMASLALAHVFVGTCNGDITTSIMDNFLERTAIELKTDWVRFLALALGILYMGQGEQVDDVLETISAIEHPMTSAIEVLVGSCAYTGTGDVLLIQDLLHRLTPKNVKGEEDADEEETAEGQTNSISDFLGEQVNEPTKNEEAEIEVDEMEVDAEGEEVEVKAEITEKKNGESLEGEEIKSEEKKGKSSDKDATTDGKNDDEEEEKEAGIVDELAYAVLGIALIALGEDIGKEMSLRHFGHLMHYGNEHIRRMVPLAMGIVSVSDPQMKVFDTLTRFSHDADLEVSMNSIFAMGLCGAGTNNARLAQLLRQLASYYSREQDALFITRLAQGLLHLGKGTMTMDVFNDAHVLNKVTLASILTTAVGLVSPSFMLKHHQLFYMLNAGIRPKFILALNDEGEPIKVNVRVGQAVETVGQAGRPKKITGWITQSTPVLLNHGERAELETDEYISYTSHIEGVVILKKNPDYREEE

Rpt2 = Rpt2 (S. cerevisiae, UniProt P40327 1-437); assay: cryo-EM structure
Rpt2, sequence (P40327 whole entry): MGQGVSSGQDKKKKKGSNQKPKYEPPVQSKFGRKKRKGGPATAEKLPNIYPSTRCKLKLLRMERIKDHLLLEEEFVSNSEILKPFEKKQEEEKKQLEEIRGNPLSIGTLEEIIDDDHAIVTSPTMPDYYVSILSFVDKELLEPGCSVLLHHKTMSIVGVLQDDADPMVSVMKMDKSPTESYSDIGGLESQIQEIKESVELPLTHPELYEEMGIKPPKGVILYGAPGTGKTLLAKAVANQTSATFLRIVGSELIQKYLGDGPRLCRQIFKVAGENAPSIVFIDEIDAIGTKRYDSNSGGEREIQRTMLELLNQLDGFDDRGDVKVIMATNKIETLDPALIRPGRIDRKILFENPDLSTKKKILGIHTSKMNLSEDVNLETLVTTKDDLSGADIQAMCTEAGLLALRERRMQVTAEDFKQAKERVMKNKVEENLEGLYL

B1: 20S core subunit α4 (natural protein)
chain: MSGYDRALSIFSPDGHIFQVEYALEAVKRGTCAVGVKGKNCVVLGCERRSTLKLQDTRITPSKVSKIDSHVVLSFSGLNADSRILIEKARVEAQSHRLTLEDPVTVEYLTRYVAGVQQRYTQSGGVRPFGVSTLIAGFDPRDDEPKLYQTEPSGIYSSWSAQTIGRNSKTVREFLEKNYDRKEPPATVEECVKLTVRSLLEVVQTGAKNIEITVVKPDSDIVALSSEEINQYVTQIEQEKQEQQEQDKKKKSNH
Rpn1
  binding result: binds
Rpt2
  binding result: binds
